Where a chain is given by its changes, count along the chain named. Numbers in names are those of the source. Values belong to the molecule of their own block, whether it stands above or below them.
Key:
WIPI2 (endogenous, HeLa) = experiment: GFP-TRAP pull-down, quantified immunoblot; settings: HeLa cells starved for 1 hr; n = 3; parent: est. 0.10; read off a plot
[1] = target: RAB11A (endogenous, HeLa) (UniProt P62491); experiment: GFP-TRAP pull-down, quantified immunoblot; settings: HeLa cells starved for 2 hr; n = 5; parent: est. 1.0; read off a plot
[2] = target: T1, recombinant human HIS-RAB11A, P62491; experiment: liposome sedimentation assay; settings: chain shown with the change; in vitro; RAB11A-containing liposomes; n = 4; parent: est. 100; read off a plot
T1 chain: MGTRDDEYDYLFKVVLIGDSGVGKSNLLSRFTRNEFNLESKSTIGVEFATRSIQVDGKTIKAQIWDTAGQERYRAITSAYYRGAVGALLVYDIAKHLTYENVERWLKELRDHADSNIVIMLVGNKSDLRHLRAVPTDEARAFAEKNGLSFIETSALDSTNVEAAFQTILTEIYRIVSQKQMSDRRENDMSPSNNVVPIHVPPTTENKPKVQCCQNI

Molecule: GFP-RAB11A (from UniProt P62491) Q70L
response (WIPI2 (endogenous, HeLa)): 0.15 au

Molecule: GFP-WIPI2 L115A; E116T
response [1]: 0.42 au

B2: WIPI2-FLAG WT L115A; E116T (protein)
chain: MNLASQSGEAGAGQLLFANFNQDNTSLAVGSKSGYKFFSLSSVDKLEQIYECTDTEDVCIVERLFSSSLVAIVSLKAPRKLKVCHFKKGTEICNYSYSNTILAVKLNRQRLIVCATESLYIHNIRDMKVLHTIRETPPNPAGLCALSINNDNCYLAYPGSATIGEVQVFDTINLRAANMIPAHDSPLAALAFDASGTKLATASEKGTVIRVFSIPEGQKLFEFRRGVKRCVSICSLAFSMDGMFLSASSNTETVHIFKLETVKEKPPEEPTTWTGYFGKVLMASTSYLPSQVTEMFNQGRAFATVRLPFCGHKNICSLATIQKIPRLLVGAADGYLYMYNLDPQEGGECALMKQHRLDGSLETTNEILDSASHDCPLVTQTYGAAAGKGTYVPSSPTRLAYTDDLGAVGGACLEDEASALRLDEDSEHPPMILRTD
percent of parent [2]: 43 % WT

B3: WIPI2-FLAG WT Y120F; I121E (protein)
chain: B2 chain with A115L, T116E, Y120F, I121E
percent of parent [2]: 38 % WT

The remaining lines, values ahead:

response (WIPI2 (endogenous, HeLa)): 0.045 au
Molecule: GFP-RAB11A (from UniProt P62491) S25N

response [1]: 0.1 au
Molecule: GFP-WIPI2 Y120F; I121E

percent of parent [2]: 92 % WT
B1: WIPI2-FLAG WT R224T; R225T (protein)
chain: B2 chain with A115L, T116E, R224T, R225T

Reference: paper PMC5896254
